Assay: soluble on expression in E. coli; label from the status in PepcDB or PDB records

Sequence	soluble on expression in E. coli
MAIGSKIIKPGGSDPDDFEKSIAQALVELEANSDLKPYLRDLHITRAREIEFGSKKAVIIYVPIPQQKVFQKIQIILVRELEKKFSGKHVVVIAERKILPKPTRKARNPLKQKRPRSRTLTAVYDAILEDLVFPAEIVGKRIRVKLDGSQLVKVHLDKNQQTTIEHKVDTFTSVYKKLTGRDVTFEFPDNYLNV	not soluble
MSSVAVLTQESFAEHRSGLVPQQIKVATLNSEEESDPPTYKDAFPPLPEKAACLESAQEPAGAWSNKIRPIKASVITQVFHVPLEERKYKDMNQFGEGEQAKICLEIMQRTGAHLELSLAKDQGLSIMVSGKLDAVMKARKDIVARLQTQASATVPIPKEHHRFVIGKNGEKLQDLELKTATKIQIPRPDDPSNQIKITGTKEGIEKARHEVLLISAEQDKRAVERLEVEKAFHPFIAGPYNRLVGEIMQETGTRINIPPPSVNRTEIVFTGEKEQLAQAVARIKKIYEEKKKKTTTIAVEVKKSQHKYVIGPKGNSLQEILERTGVSVEIPPSDSISETVILRGEPEKLGQALTEVYAKVASSKIKLCSDNS	not soluble
MNEIQKYIAANEPKIMEDLFSLIRIPSISALPEHHDDMLACAQRWAQLLLEAGVDEALVMPSKGNPIVFAQKIVDPNAKTVLVYAHYDVMPAEPLELWKSQPFEPEVRDGYIWARGADDDKGQSFIQVKAFEYLVKNELLKNNVKFIFEGEEEIGSPSLEAFCEEHKELLKADVILVSDTSMLGAELPSLTTGLRGLAYWEIEVTGPNRDLHSGHFGGAVANPINVLCEIISKVTDKDGRITVPGFYDDVEEVPQAEREMIAHIPFDEKKYKEAIGVKELFGEKGYSTLERNSCRPSFDVCGIWGGYTGEGSKTVLPSKAYAKVSCRLVAHQDHHKISQMFADYILQMAPDTVQVKVTPMHGGQGYVCPISLPAYQAAEKGFEIAFGKKPLAVRRGGSIPIISTFEQVLGTKTVLMGFGLESDAIHSPNENFSLDIFRKGIEAVIEFHQEYAKR	not soluble
ASIKENSYFAGGVKSLGFNQHGQDVSVGVMLPGEYTFGTQAPERMTVVKGALVVKRVGEADWTTYSSGESFDVEGNSSFELQVKDATAYLCEYL	soluble
MAETKIVVGPQPFSVGEEYPWLAERDEDGAVVTFTGKVRNHNLGDSVNALTLEHYPGMTEKALAEIVDEARNRWPLGRVTVIHRIGELWPGDEIVFVGVTSAHRSSAFEAGQFIMDYLKTRAPFWKREATPEGDRWVEARESDQQAAKRW	soluble
GFVNVTGMFRDRARTNRADGNQLILFDQSDFPNGVAPPSGFPFAYPQVAGIIGEEAAQNARRIDNQILNQRGLERSDFQFRVGQSAVQQRAVFLNSEVGLGNDATLYAFGGLSYKNGIGAPFRRLPFSTSAMPYRASNTDPALFPNGFQPEMNSDVVDQSLTIGVEGTIGGWTWDLSNSYGRNSLDYQMDNTVNASLLQASPTSIYAGGHAFSQNVTNLDVSRFFDDALAGINVAFGGAYRTDRYQIFSGEEASYRNYGRVQLIDDTSAASPRLVTRDTLGKEPGTQGFVGFRPENEVDRTRSNVAAYLDTEVNLTENLLVTAAGRYENYSDFGGTLNGRLAARWGLLDGRLNLRGSASTGFRAPSLHQIYFNEVRT	not soluble
MSQFGATAIGIANIAMNGEVLDTWYPTPELVPASTSPSYSERLGAQDLPPKLLSLVRLDEDRLVEQVAVRTYIGDLDTPPIDAHDVFLRLHLLSHRLVRPLEINMDNAMSILSRVVWTNKGPCLPENFENIRMSLRNRGLIHVYGIDRLPRMVDYVVPTGVEITEAERVRLGAYLAEGTKVLREGYVSFNAGTLGAGRIEGRLYSGTVVGDNVDLGISASIVPDKPHAQLRVGANCVFGLGSAVMGINLGDNVRVGNNVVIDKETMVYFADRDITAAAAILDGQSDWQIHAESGRPEPVVRPT	soluble
MLLVMGAHESGLDRARLQSLYEQLVATNEDETEKLAASGHSTGLVASEWARFLAPFDFGYRLVALQRESKRVAAALTRALYGIDTSGASEHDPLWAVEHRVLPVPVTDRLLFCEMRFLLVLALSRRLWMRLERVDPLGQENPFPRDAEIIERVEDLARQSRERLALLAERSPEALNAGKQEAHDCIEDLRTKETRAAEQVAGFAQALGDAALLEKVWHALVDEIAQNRQLNHALLQTLCQWVLMLIGADTEVPSSASCSDE	soluble
METGAGIGLYPLHRCKTIYLVRHAQGIHNVDGEKNYKAYMSHDYFDAELTQLGWKQVDSLRKHVHSSGLHKKIELVISSPLMRTLQTAVGVFGGEGYTDMSDVLPLMVANAGNSSRAAISSLNCPPVITEESCREHLGVHPCDQRRSISDYQFLFPAVDFSLIESEEDKLWKADVRETIEELAARGKKFLNWLWTRKEKEIAIVTHSGFLFHTLNALQNECHPDVKKEICGHFANCELRSMVIVDRSMLGSDSSVTDYPGKIPKGIDLPSDAVVDDNNIKVE	soluble
